This note sets out measurements from patent publication US20060057104A1, “Methods for stimulating tlr irf3 pathways for inducing anti-microbial, anti-inflammatory and anticancer responses” (THE Regents of the University of California Office of the …, priority 2002, published 2006).

For one test, the system named is BMMs. Kind of test: Quantitative real-time PCR gene expression in BMMs, wild-type and IFNAR deficient (Example 2). It is filed as cell-based, murine. The settings on record: rIFN-β 10, 100, 1000 units. How it is done: Murine BMMs were stimulated with poly(I:C) (10 μg/ml) or lipid A (1 ng/ml) for the indicated times. Total RiNA was isolated and converted to cDNA for quantitative real-time PCR analysis using primers specific for IFN-β, IFI-204, IP10, IκBα, or L32. Experiments were repeated three times, and the data are presented in relative expression units on a log scale, as described in Example 2, infra.
Primary macrophage cells derived from bone marrow cells were stimulated with poly I:C (1 μg/ml) or lipid A (1 ng/ml) for the indicated times, as described in Example 2, infra.
(B) TLR3 and TLR4 mRNA levels were also assessed in cells deficient in IFNAR, and cells stimulated with rIFN-β (10, 100, and 1000 U). Experiments were repeated at least two separate times, and data are presented in relative expression units. L32 was used to normalize all samples.
Both wild-type cells and cells deficient in IFNAR were stimulated with poly I:C (1 μg/ml) or lipid A (1 ng/ml) for either 1 or 4 h. IFN-β, IP10, IFI-204, ICAM1, and L32 mRNA levels were assessed. Data are representative of three independent experiments and presented in relative expression units, as described in Example 2, infra.
Murine bone marrow-derived macrophages (BMMs) were differentiated from marrow as previously described (Doyle, S. E., S. A. Vaidya, R. O'Connell, H. Dadgostar, P. W. Dempsey, T.-T. Wu, G. Rao, R. Sun, M. E. Haberland, R. L. Modlin, and G. Cheng. 2002. IRF3 mediates a TLR3/TLR4-specific antiviral gene program. Immunity 17:251). A129 (IFNAR-1^−/−) (Muller, U., U. Steinhoff, L. F. L. Reis, S. Hemmi, J. Pavlovic, R. M. Zinkernagel, and M. Aguet. 1994. Functional role of type I and type II interferons in antiviral defense. Science 264:1918) and B6129SF2/J wild type control mice were obtained from B&K Universal Ltd. and Jackson Laboratories, respectively. C57/B6 mice were used for all experiments not involving the A129 mice (Jackson Laboratories). Specific TLR activation was achieved using F-583 (Rd mutant) E. coli lipid A for TLR4 (Sigma), CpG oligonucleotides for TLR9 (Invitrogen) and poly I:C for TLR3 (Pharmacia). For experiments employing the TIRAP/MAL inhibitory peptide (CN Biosciences), cells were pretreated for 1 hour with 20 μM peptide or DMSO alone. Cells were then stimulated with PAMPs in the presence of the inhibitory peptide. For experiments using murine rIFN-β (R&D Systems), wild-type macrophage cells were stimulated with 10, 100, or 1000 units. Viral infection and harvest was performed using MHV68 at an M.O.I. of 5 as previously described (Doyle, S. E., S. A. Vaidya, R. O'Connell, H. Dadgostar, P. W. Dempsey, T.-T. Wu, G. Rao, R. Sun, M. E. Haberland, R. L. Modlin, and G. Cheng. 2002. IRF3 mediates a TLR3/TLR4-specific antiviral gene program. Immunity 17:251).
RNA was isolated by standard guanidium isothiocyanate methods. cDNA template for quantitative realtime PCR analysis was then synthesized and PCR was performed using the iCycler thermocycler (Bio-Rad) as previously described (Doyle, S. E., S. A. Vaidya, R. O'Connell, H. Dadgostar, P. W. Dempsey, T.-T. Wu, G. Rao, R. Sun, M. E. Haberland, R. L. Modlin, and G. Cheng. 2002. IRF3 mediates a TLR3/TLR4-specific antiviral gene program. Immunity 17:251). IFN-βIP10, IκBα and IFI-204 primers were the same as those previously described (Doyle, S. E., S. A. Vaidya, R. O'Connell, H. Dadgostar, P. W. Dempsey, T.-T. Wu, G. Rao, R. Sun, M. E. Haberland, R. L. Modlin, and G. Cheng. 2002. IRF3 mediates a TLR3/TLR4-specific antiviral gene program. Immunity 17:251). For other genes, the following primers were used: […]

Another test relates to Primary murine B cells. Kind of test: Microarray analysis of primary murine B cells stimulated with LPS or CD40L. It is filed as cell-based. The note with it: LPS 20 μg/mL, soluble CD8/CD40L chimera 300 ng/mL. How it is done: (A) Primary murine B cells were stimulated with LPS (20 μg/mL) or a soluble CD8/CD40L chimera (300 ng/mL) and RNA was collected at indicated time points and used to conduct microarray analysis. […] Expression changes: Red—Induced, Green—Repressed, Black—No Change. Selected time points were hybridized to microarrays in duplicate to ensure reproducibility.
B cell isolation, target preparation, and hybridization using Affymetrix Mu6500 microarrays were performed as described previously (Dadgostar, H., Zarnegar, B., Hoffman, A., Qin, X.-F., Truong, U., Rao, G., Baltimore, D., and Cheng, G. (2002), Proc. Natl. Acad. Sci. USA 99, 1497-1502). Differential expression data was analyzed by Affymetrix Microarray Suite 4.0 software. Average difference change values were then normalized and the genes were clustered by the uncentered correlation average linkage hierarchical clustering algorithm using Cluster. Data was then visualized as a dendogram using Treeview software (www.rana.Ibl.gov/EisenSoftware.htm).
We have conducted a series of microarray experiments to determine gene expression patterns in murine B cells in response to activating stimuli such as LPS and CD40L. […] Genes were hierarchically clustered using average difference change values derived by comparing control samples (media 4h) with samples from cells treated with indicated stimulus.

B1: recombinant IFN-β: murine rIFN-β (R&D Systems) (protein, UniProt P01575 22-182, looked up)
Interferon beta: INYKQLQLQERTNIRKCQELLEQLNGKINLTYRADFKIPMEMTEKMQKSYTAFAIQEMLQNVFLVFRNNFSSTGWNETIVVRLLDELHQQTVFLKTVLEEKQEERLTWEMSSTALHLKSYYWRVQRYLKLMKYNSYAWMVVRAEIFRNFLIIRRLTRNFQN
As for B1, in the test on BMMs (wild type cells), the “TLR4 mRNA levels” value is given as “relatively unaltered”. Further, the “TLR3 mRNA” value in the test with BMMs (wild-type primary macrophages) is reported as “dose dependent upregulation”.

B2: CD40L (protein, UniProt P29965 113-261, looked up)
CD40 ligand, soluble form: MQKGDQNPQIAAHVISEASSKTTSVLQWAEKGYYTMSNNLVTLENGKQLTVKRQGLYYIYAQVTFCSNREASSQAPFIASLCLKSPGRFERILLRAANTHSSAKPCGQQSIHLGGVFELQPGASVFVNVTDPSQVSHGTGFTSFGLLKL
For B2, the “upregulation of genes previously characterized as interferon-responsive” value with Primary murine B cells is “not”.
